Assay [1] concerns the target T1, α-casein (UniProt P02662 16-214, between 8 and 13 phosphate groups, at serine side chains).
T1 construct: Commercial α-casein is a mixture of subtypes; also called a-casein
T1 sequence (looked up): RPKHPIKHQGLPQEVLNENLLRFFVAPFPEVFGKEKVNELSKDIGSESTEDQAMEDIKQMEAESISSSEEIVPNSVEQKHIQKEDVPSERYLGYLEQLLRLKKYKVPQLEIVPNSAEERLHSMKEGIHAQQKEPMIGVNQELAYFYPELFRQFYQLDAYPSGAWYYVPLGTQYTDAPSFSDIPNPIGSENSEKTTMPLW
Kind of assay: fluorescence titration, binder fixed at 100 nM, concentration of total α-casein varied [upper panel, [a-casein]tot]. As for the experimental part:
(§1) For a more accurate determination of the dissociation constant, titration with protein at a binder concentration of 100 nM in 10 mM HEPES buffer and 150 mM NaCl at pH 7.2 was carried out (FIG. 12). At this concentration a more strongly emitting probe was required and fluorescein was attached to the side chain of Cys-24 by reacting the maleimide group with the free thiol of the polypeptide after removal of the acetamidomethyl (Acm) protection group. The binder concentration was kept constant at 100 nM and a series of samples were prepared where only the concentration of α-casein was varied.
(§2) A series of solutions were prepared. […] All solutions were prepared in HEPES buffer (pH=7.2, 10 mM HEPES, 150 mM NaCl).

Assay [2] addresses T1, α-casein. Nature of the assay: fluorescence titration, binder fixed at 100 nM, plotted against the free concentration of α-casein [lower panel, [a-casein]free]. The procedure:
as §1

Assay [3] deals with T1, α-casein. Kind of assay: fluorescence titration, 100 nM fluorescein labelled binder, α-casein 1 nM to 10 µM, 1:1 model. As for the experimental part:
as §1, §2

The target of assay [4] is T1, α-casein. Kind of assay: three-step fluorescence titration, 500 nM binder; rough estimate. The procedure:
In a preliminary and simple assay executable in microtitre plate format, each of the eight binder candidates at a concentration of 500 nM in 10 mM HEPES buffer and 150 mM NaCl at pH 7.2, equipped with the fluorophor 7-methoxycoumarin-3-carboxylic acid, were titrated with α-casein in three steps (FIG. 8). Concentrations of peptides were determined from the absorbance of the coumarine probe and stock solutions at concentrations of 5 μM were prepared from which aliqiuots were transferred to the microtitre plate. […] Saturation within experimental error at those concentrations is compatible with low nM affinity and tight binding.
In contrast, the differences in relative responses to increased concentrations of α-casein are related to differences in affinity. […] Nevertheless, it is a quick and informative experiment. From the fluorescence titrations the 4-series of binder candidates was estimated to have dissociation constants of around 5 nM or lower. […] It is concluded that the 3-series binders have dissociation constants in the high nM to the μM range. The nearly identical affinities within the 3-series and within the 4-series is probably fortuitous.

Ends that are not written are not given here. * marks the point of attachment. PP1 = 3,5-bis[[bis(2-pyridylmethyl)amino]methyl]benzoic acid, O=C(c1cc(CN(Cc2ccccn2)Cc2ccccn2)cc(CN(Cc2ccccn2)Cc2ccccn2)c1)*; X2 = 7‑methoxycoumarin‑3‑carboxylic acid, COc1ccc2cc(C(=O)*)c(=O)oc2c1 Where only a bound is given, the exact number is not on record here.

B1: 4-C15L8-PP1* (fluorescein on Cys-24) (designed binder)
chain: NAADLEAK(PP1)IRHLREKLAARGPRDC(fluorescein maleimide)AQLAEQLARRFERFARAG-NH2
modifications: not fully specified (N-terminus); also: PP1 chelating two Zn2+, group on Lys15 not given here
Regarding B1, the EC50 (read off the curve) (as a rule, the concentration needed to bring the measured effect to its halfway point) in assay [1] was around 70 nM; in assay [2], around 20 nM. In addition, the Kd (in general, the constant that tells how readily two partners part at equilibrium) in assay [3] is 17 nM.

NAADLEARIRHLRERLAARGPK(PP1)DCK(X2)QLAEQLARAFERFARAG-NH2 (designed binder, not fully specified (residue 24, N-terminus); also: two Zn2+ chelated by PP1, Named only as a member of the 4-series) [4-C25L22-PP1 (coumarin form, with Zn2+)]: the Kd in assay [4] was at most 5 nM.

Values taken from patent publication US20130261013A1 (MODPRO, published 2013).
